The target in one assay is PLCγ1 (Homo sapiens) (UniProt P19174). The settings on record: cited from earlier work.
For another assay, the target named is T1, Full-length human PLCγ1 (human, UniProt P19174 1-1290).
T1 construct: phospholipase C gamma 1 (PLCγ1), human, full length; YFP fusions are named only for the lipid array (LiMA), so Myc is surmised here; Cloned in a Gateway-modified pTriEx4 and purified as a His-tagged protein; No removal of tags is described; also called hPLCγ1; intact PLCγ1; source: Freestyle 293F cells, transfected, purified (HisTrap, Superdex 200)
T1 sequence (looked up): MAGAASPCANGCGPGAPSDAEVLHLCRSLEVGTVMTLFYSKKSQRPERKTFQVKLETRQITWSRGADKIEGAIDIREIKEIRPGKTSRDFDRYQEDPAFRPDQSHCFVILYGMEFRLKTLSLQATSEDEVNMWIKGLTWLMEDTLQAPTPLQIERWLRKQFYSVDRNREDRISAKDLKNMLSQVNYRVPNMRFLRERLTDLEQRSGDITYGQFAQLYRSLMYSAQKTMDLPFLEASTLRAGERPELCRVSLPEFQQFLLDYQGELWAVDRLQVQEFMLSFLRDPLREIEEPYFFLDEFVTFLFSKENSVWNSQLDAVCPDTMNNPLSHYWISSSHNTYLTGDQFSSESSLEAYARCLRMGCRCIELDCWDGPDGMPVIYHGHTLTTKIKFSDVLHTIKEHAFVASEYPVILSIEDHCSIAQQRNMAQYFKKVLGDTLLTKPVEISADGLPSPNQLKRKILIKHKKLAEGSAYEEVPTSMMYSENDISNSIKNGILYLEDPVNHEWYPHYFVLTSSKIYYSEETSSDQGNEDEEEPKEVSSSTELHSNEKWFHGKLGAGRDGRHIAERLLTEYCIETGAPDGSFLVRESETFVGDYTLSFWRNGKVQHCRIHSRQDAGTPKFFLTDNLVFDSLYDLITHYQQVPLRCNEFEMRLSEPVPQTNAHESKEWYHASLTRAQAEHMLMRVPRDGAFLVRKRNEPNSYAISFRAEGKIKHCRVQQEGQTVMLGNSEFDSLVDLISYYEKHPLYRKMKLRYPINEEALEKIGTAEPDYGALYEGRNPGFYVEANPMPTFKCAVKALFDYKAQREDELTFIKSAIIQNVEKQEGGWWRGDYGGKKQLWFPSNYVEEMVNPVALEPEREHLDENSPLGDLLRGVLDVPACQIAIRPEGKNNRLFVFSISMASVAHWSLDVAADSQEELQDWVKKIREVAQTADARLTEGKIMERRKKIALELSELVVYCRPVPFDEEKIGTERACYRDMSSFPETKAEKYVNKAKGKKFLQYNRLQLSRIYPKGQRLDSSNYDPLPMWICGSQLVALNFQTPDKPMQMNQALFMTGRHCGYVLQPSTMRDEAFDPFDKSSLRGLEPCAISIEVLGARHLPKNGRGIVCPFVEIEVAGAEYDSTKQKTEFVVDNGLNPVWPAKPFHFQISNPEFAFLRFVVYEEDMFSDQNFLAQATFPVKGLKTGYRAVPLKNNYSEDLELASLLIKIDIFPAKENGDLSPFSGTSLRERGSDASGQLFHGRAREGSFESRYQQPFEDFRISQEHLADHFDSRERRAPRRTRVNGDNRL
In words: cryo-EM structure; complex of PLCγ1 and FGFR1-1P (mixed 1:10, purified by SEC), cross-linked with BS3 and purified again; 0.6 mg/ml on grids; 25 mM HEPES, 150 mM NaCl, 2 mM TCEP, pH 7.5; no ATP; Titan Krios with Volta phase plate; map at 5–8 Å with known domain structures docked as rigid bodies. Conditions: both partners purified. A general note: Size exclusion chromatography separates by hydrodynamic size, large species first.

Turning to “FGFR1 intracellular portion (from UniProt P11362)”, the Kd with PLCγ1 (Homo sapiens) was 5 nM.

B1: Human FGFR1 kinase domain (456–774, L457V, Y463F, C488A, Y583F, C584S, Y585F, Y653F and Y654F), FGFR1-1P (domain or fragment, UniProt P11362 456-774, looked up)
chain: MVAGVSEFELPEDPRWELPRDRLVLGKPLGEGAFGQVVLAEAIGLDKDKPNRVTKVAVKMLKSDATEKDLSDLISEMEMMKMIGKHKNIINLLGACTQDGPLYVIVEYASKGNLREYLQARRPPGLEFSFNPSHNPEEQLSSKDLVSCAYQVARGMEYLASKKCIHRDLAARNVLVTEDNVMKIADFGLARDIHHIDFFKKTTNGRLPVKWMAPEALFDRIYTHQSDVWSFGVLLWEIFTLGGSPYPGVPVEELFKLLKEGHRMDKPSNCTNELYMMMRDCWHAVPSQRPTFKQLVEDLDRIVALTSNQEYLDLSMPLD
modifications: phosphotyrosine at 766 (pY766; FGFR1-1P)
notes: The methods call the protein in the complex FGFR1-1P, and the results speak of pY766 in its C-terminal tail; How the phosphorylation was made is not described here; also called FGFR1int; FGFRint; source: E. coli C41 (DE3), purified (HisTrap, Ulp1 cleavage, HiTrap Q, Superdex 75); not shown: His tag, N-terminal, cleaved; SUMO (from the vector pOPINS, cut by Ulp1), N-terminal, cleaved
Regarding B1, in the assay with Full-length human PLCγ1, the binding result was “binds”.

The term Kd denotes the constant that tells how readily two partners part at equilibrium.

Source of the values: paper PMC7000336, “Structural insights and activating mutations in diverse pathologies define mechanisms of deregulation for phospholipase C gamma enzymes” (EBioMedicine, 2020).
